From patent publication US20210198377A1 (XDCEXPLORER SHANGHAI, published 2021)

T1: human TPBG-hFc (human, UniProt Q13641 32-355)
T1 construct: also called immunogen A; hFc tagged TPBG protein; not shown: The human IgG Fc fragment of the pCpC vector (Invitrogen V044-50) and any linker to it
T1 sequence: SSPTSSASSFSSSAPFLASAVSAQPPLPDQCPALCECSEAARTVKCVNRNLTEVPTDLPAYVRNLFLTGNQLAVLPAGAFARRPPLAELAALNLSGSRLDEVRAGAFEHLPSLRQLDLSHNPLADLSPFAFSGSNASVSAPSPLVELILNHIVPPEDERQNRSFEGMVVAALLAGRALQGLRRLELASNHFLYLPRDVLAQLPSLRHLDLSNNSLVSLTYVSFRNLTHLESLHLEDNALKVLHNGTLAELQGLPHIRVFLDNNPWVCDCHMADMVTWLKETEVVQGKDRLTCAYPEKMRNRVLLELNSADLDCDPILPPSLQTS

T2: biotinylated recombinant TPBG protein (Homo sapiens (Human), UniProt Q13641 32-355, Biotinylated; the number and positions of the biotin labels are not stated and the letters do not carry them.)
T2 sequence: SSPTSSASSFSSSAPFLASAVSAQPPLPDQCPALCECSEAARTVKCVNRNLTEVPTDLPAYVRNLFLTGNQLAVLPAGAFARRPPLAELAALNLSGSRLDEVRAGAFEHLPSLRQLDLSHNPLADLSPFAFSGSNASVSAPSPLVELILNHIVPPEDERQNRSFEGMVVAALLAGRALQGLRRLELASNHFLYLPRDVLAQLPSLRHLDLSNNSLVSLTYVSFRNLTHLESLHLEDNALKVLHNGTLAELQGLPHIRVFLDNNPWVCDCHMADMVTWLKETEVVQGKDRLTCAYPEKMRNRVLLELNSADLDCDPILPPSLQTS


Assays:
human TPBG-hFc = target: T1, human TPBG-hFc; experiment: ELISA, coated human TPBG-hFc 1.0 ug/mL; antibody 2 nM
Description: The purified immunogen A (as for its method of preparation please refer to step 1 in Example 1) diluting with PBS to a final concentration of 1.0 μg/mL was aliquoted into a 96-well ELISA plate at 100 μL per well, and sealed with a parafilm and incubated at 4° C. overnight. The plate was washed twice with plate washing buffer (PBS containing 0.01% (v/v) Tween 20), and blocked with blocking buffer (PBS containing 0.01% (v/v) Tween 20 and 1% (w/w) BSA) at room temperature for 2 h. The blocking buffer was discarded, and 100 μL per well of the purified antibody obtained from Embodiment 2 was added. After incubating at 37° C. for 2 h, the plate was washed for three times with plate washing buffer (PBS containing 0.01% (v/v) Tween 20). HRP (horseradish peroxidase)-labeled secondary antibody (purchased from Sigma) was added and incubated at 37° C. for 2 h, and the plate was washed for three times using plate washing buffer (PBS containing 0.01% (v/v) Tween 20). 100 μL of TMB substrate was aliquoted into each well, incubated at room temperature for 30 min, and 100 μL of stop buffer (1.0N HCl) per well was subsequently added. A₄₅₀ₙₘ values were read using the ELISA plate reader (SpectraMax 384plus purchased from Molecular Device), and the results were shown in FIG. 6 and table 6. […] In Table 6 the IgG control herein is a mice IgG control, the data in the Table are OD₄₅₀ₘₙ values, and Blank means the OD₄₅₀ₘₙ value when there is only PBS buffer in the plate.

[1] = target: T2, biotinylated recombinant TPBG protein; experiment: competitive ELISA; row antibody 5 ug/mL; competitor: coated 103E2E9C2
Description: (§1) The purified antibodies to be tested were diluted to 1 μg/mL using PBS, and coated with high-adsorption of 96-well microplates at […]. After overnight coating at 4[…], 250 μL of blocking buffer (PBS containing 0.01% (v/v) Tween20 and 1% (w/w) BSA) was added to block coating at room temperature for 1 h, and 0.05 μg/mL of biotinylated recombinant TPBG protein was added to each well. Meanwhile, 5 μg/mL final concentration of competitive antibodies, i.e. the purified antibodies obtained from Embodiment 2 with the clone number of 12B12C7C3, 5G4H10G5, 37H9C5G2, 39A11G5F2, 52C9E9F6, 28D4E6A9, 36A10D8B12, 99E12C7H1, 103E2E9C2 and 106D5G3D10 were added and incubated at 25-37° C. for 1-2 h. The plates were washed three times with plate-washing buffer (PBS containing 0.01% (v/v) Tween20) and HRP (horseradish peroxidase)-labeled streptavidin (purchased from Sigma) was added. After incubating at 37° C. for 0.5 h, the plates were washed three times with plate-washing buffer (PBS containing 0.01% (v/v) Tween20), and 100 μL of TMB substrate was added to each well and the plates were further incubated at room temperature for 30 min prior to adding 100 μL of stop buffer (1.0N HCl) to each well. A₄₅₀ₙₘ values were read using an ELISA microplate reader (SpectraMax 384plus purchased from Molecular Device) and results were shown in FIG. 6. The higher the values of the competition rate, the closer the antigen surface of the two antibodies are.

[2] = target: T2, biotinylated recombinant TPBG protein; experiment: competitive ELISA; row antibody 5 ug/mL; competitor: coated 39A11G5F2
Description: as §1

[3] = target: T2, biotinylated recombinant TPBG protein; experiment: competitive ELISA; row antibody 5 ug/mL; competitor: coated 99E12C7H1
Description: as §1

[4] = target: T2, biotinylated recombinant TPBG protein; experiment: competitive ELISA; row antibody 5 ug/mL; competitor: coated 36A10D8B12
Description: as §1

OD450nm (human TPBG-hFc)	competition rate [1]	competition rate [2]	competition rate [3]	competition rate [4]	Binder
2.64 OD450nm	88%	0%	3%	31%	103E2E9C2 (antibody, V domains shown, Mouse hybridoma antibody purified from culture supernatant; also called TPBG antibody; lead antibody) VH: EVQLQQSGPVLVKPGASVKMSCEASGYSFIDYYMSWVKQSRGRSLEWIGVFNPYSGEIIYNQKFKGKATLTVDKSSSTAYMELSSLTSEDSGVYSCARLRISYYAIDYWGQGTSVAVSS VL: ENVLTQSPAIMSASPGEKVTMTCRATSSVSSGHFHWYQQKSGASPKVWIYSTSNLASGVPARFSGSGSGTSFSLTISSVEAEDVATYFCQQYSGYPLTFGGGTKLEIK
2.68 OD450nm	2%	10%	95%	1%	5G4H10G5 (antibody, V domains shown, Mouse hybridoma antibody purified from culture supernatant; also called TPBG antibody; lead antibody) VH: EVQLVESGGDLVQPGGSLKLFCAASGFTFSTYGLSWVRQTPDKRLELVATITNNDGSAYYPDSVKGRFTISRDKAKNTLFLQMTSLKSEDTAMYYCARETGFGSSYLFDYWGQGTLVTVSA VL: NIVMTQTPKFLLVSAGDRVTITCKASQSVSNDVAWYQQKPGQSPKLLIYFATNRYTGVPNRFTGSGYGTEFTFTISSVQAEDLAVYFCQQDYSSPTFGGGTKLEIK
2.64 OD450nm	88%	0%	11%	75%	28D4E6A9 (antibody, V domains shown, Mouse hybridoma antibody purified from culture supernatant; also called TPBG antibody; lead antibody) VH: DVQLVESGGGLVRPGGSLKLSCAASGFTFSNYVMSWARQSPEKRLEWVAEISTGGSHTYYSDTVTGRFTISRDNAKKALYLEMSSLRSEDTAIYYCIMFYYGSSYSMDYWGQGTSVTVSS VL: DIQMTQSTSSLSASLGDRITISCRASQDIRNYLNWYQQKPDGTVKLLIYHTSRLHSGVPSRFSGSGSGTDYSLTISNLEQEDIATYFCQQGDTLPLTFGAGTRLELK
2.84 OD450nm	0%	0%	25%	3%	12B12C7C3 (antibody, V domains shown, Mouse hybridoma antibody purified from culture supernatant; also called TPBG antibody; lead antibody) VH: DVQLVESGGGLVQPGGSRKLSCAASGFTFSNFGMHWVRQAPEKGLEWVAYISSGSTSFYYADTVKGRFTISRDNPKNTLFLQMTSLRSEDTAMYYCSRTNSLLRGFFDAWGAGTTVTVSS VL: DIVLTQSPASLAVSLGQRATISCRASQSVSSSSYTYLHWYQQKPGQPPKLLIKSASNLESGVPARFSGTGSGTDFTLNIHPVEEEDTATYYCQHSWEIPLTFGAGTKLELK
2.43 OD450nm	0%	96%	16%	0%	39A11G5F2 (antibody, V domains shown, Mouse hybridoma antibody purified from culture supernatant; also called TPBG antibody; lead antibody) VH: QVQLQQSGAELMKPGASMRLSCKATGYTFTGYWLEWIKRRPGHGLEWIGEILPGRGSTNYNEKFKGKATFTAETSSNTAYMQLTSLTTEDSAIYYCARGGRDFDNWGQGTTLTVSS VL: DIQMTQSTSSLSASLGDRVTISCSASQGINNHLNWYQQKPDGTVKLLIYYTSSLHSGVPSRFSGSGSGTDYSLTISNLEPEDIAIYYCQQFSKLPYTFGGGTKVEMK
2.68 OD450nm	0%	97%	18%	19%	52C9E9F6 (antibody, V domains shown, Mouse hybridoma antibody purified from culture supernatant; also called TPBG antibody; lead antibody) VH: QVQLQQSGAELMKPGASVKLSCKATGYTFTGYWIEWIKQRPGHGLEWIGEILPGRGSTDYNEKFKGKATFTADTSSNTAYMQLSSLTTEDSAIYYCTRGRLDFTYWGQGTLVTVSA VL: DIQMTQTTSSLSASLGDRVTISCSASQGIRNYLNWYQQKPDGTVKLLIYYTSSLHSGVPSRFSGSGSGTDYSLTISNLEPEDIATYYCQQYSKVPWTFGGGTKLEIK
2.52 OD450nm	38%	3%	7%	94%	37H9C5G2 (antibody, V domains shown, Mouse hybridoma antibody purified from culture supernatant; also called TPBG antibody; lead antibody) VH: QVQLQQSDAELVRPGASVKMSCKVSGYTFTDHTIHWMKQRPEQGLEWIGYIYPRDGSGTYNEKFKGKATLTADKSSSTAYMQLNSLTSEDSAVYFCARDGSSHYWYFDVWGTGTTVTVSS VL: DIQMTQSPASLSASVGETVTITCRASEIIYNYLAWYQQKQGKSPQLLVYNAKTLAEGVPSRFSGSYSGTQFSLNINSLQSEDFGIYYCQHHHDTPLTFGAGTKLDLK
2.81 OD450nm	0%	1%	11%	1%	106D5G3D10 (antibody, V domains shown, Mouse hybridoma antibody purified from culture supernatant; also called TPBG antibody; lead antibody) VH: EVQLVESGGGLVKPGGSLKLSCAASGFTFSDYGMHWVRQAPEKGLEWVGYISSGTYVVYYADTVKGRFTISRDNAKNTLFLQMTSLRSEDTAIYYCSTYGSNPFDYWGQGTTLTVSS VL: QLVLTQSPAIMSASPGEKVTITCSATSSVSSMHWFQQKPVTSPKLWIYSTSNLASGVPTRFSGSGSGTSYSLTISRMEAEDAATYYCQQRSGYPPIFTFGSGTKLEIK
2.93 OD450nm	1%	1%	94%	8%	99E12C7H1 (antibody, V domains shown, Mouse hybridoma antibody purified from culture supernatant; also called TPBG antibody; lead antibody) VH: QIQLVQSGPELKKPGETVKISCKPSGYTFTAYGLSWVKQAPGQGFQWMGWINTYSGVPTYTDDFKGRFAFSLETSAGTASLQITNLKNEDTATYFCARSSIPPFEYWGPGTTLTVSS VL: SFVMTQSPKFLLVSVGDRVTITCKASQSVSNDVAWYQQKPGQPPRVLIYFASNRYTGVPDRFTGSGYGTDFTFTISTVQAEDLALYFCQQDYSSPWTFGGGTKLEIK
3.06 OD450nm	40%	4%	25%	85%	36A10D8B12 (antibody, V domains shown, Mouse hybridoma antibody purified from culture supernatant; also called TPBG antibody; lead antibody) VH: DVQLQESGPGMVKPSQSLSLTCTVTGYSITSGYDWHWIRHFPGNKLEWMGYISYSGNTNYNPSLKSRISITHNTSKNHFFLRLNSVTTEDTATYYCARGYGNWDAMDYWGQGTSVTVSS VL: DIVMTQSQKFMSTSVGDRVSVTCKASQIVDTNVAWYQQKPGQSPKALISSASYRYSGVPDRFTGSGSGTDFTLTISNVQSEDLAEYFCQQYNSYPLTFGAGTKLELT
